Source: the supplement of paper PMC10065799, “High-throughput profiling of sequence recognition by tyrosine kinases and SH2 domains using bacterial peptide display” (eLife, 2023)

Each sequence was assayed on c-Src (assay: phosphorylation enrichment, bacterial display (enrichment ratio); higher = better substrate or ligand; peptides without Tyr show the background).
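Wherever SH2 binding enrichment of the phosphorylated peptide, bacterial display is given: peptide library displayed on the E. coli surface as eCPX fusions, selected cells deep-sequenced, score is each peptide's frequency after selection divided by its frequency in the input.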
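Wherever phosphorylation enrichment, bacterial display is given: 11-residue human phosphosite peptides and single-mutation variants displayed on the E. coli surface, counted by deep sequencing, each peptide's frequency after selection divided by its frequency in the unselected input library; frequency after pTyr selection over input frequency; kinase dosed for 20-30% of maximal phosphorylation in three min.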

Sequence | phosphorylation enrichment
ILDEAYVMASM [EGFR_Y764_V769M] | 0.643
VFSATYHPDHW [EFCAB12_Y544_P541S_YF] | 0.761
PTYKHYANSTQ [SLC12A3_Y70_E68K] | 0.422
WKGSWYSMRKM [FGB_Y475] | 0.538
VIESSYQVAKA [CPT1B_Y534] | 0.483
FLRKEYGGVNV [CBR3_Y81_L84V] | 0.578
DGTGRYLCNAC [GATA5_Y208_H207R] | 0.349
NTADFYDLFGG [PTPN11_Y63_G60A_YF] | 4.45
KNCFKYYMSDD [ATRX_Y203] | 0.572
HNLNFYKKTTN [FGFR3_Y648_D646N_YF] | 0.565
PTFEHYANSTQ [SLC12A3_Y70_YF] | 0.433
LHSEAYLKFIE [PBRM1_Y1610_YF] | 0.486
EGWQVYRLGTR [MISP_Y95_A99T] | 3.69
PLKALYLQQRP [ATM_Y2969] | 0.576
DKNSSYFADWL [TUBB8_Y340] | 0.512
HFEDGYPGGSD [CTNND1_Y221_YF] | 0.514
SSNPEYLSASD [INSR_Y999] | 0.458

Sequence | phosphorylation enrichment
EEAAGCAQESQ [CAMKV_Y491_Y491C] | 0.491
YTNELYMMMRD [FGFR1_Y730_C725Y] | 2.18
LAEMNYVHRDL [EPHB1_Y740] | 0.432
SVVVTYEPPEV [TP53_Y220_P219T] | 0.623
SENAFYLSPHI [COL6A3_Y2827_D2831H] | 0.491
PYRSIYFSSPK [MPG_Y75] | 0.903
TEALYYTDDTA [ADPRS_Y75] | 1.9
SKDSAYVTWEP | 1.59
GVLDIYGFEIL [MYO1A_Y382] | 1.76
AGADGYGFLAP [FOXL2_Y186_YF] | 0.797
VDHFGYTKDDK [APOB_Y740] | 0.393
PRAEWYRDDLL [MYOM2_Y317_V321L] | 0.575
AVVEPYNSLLT [TUBA1A_Y185_I188L] | 0.463
FGCTFYNQAIM [MCCC2_Y196_R193C] | 0.47
IITDYYVDMKF [MPP4_Y567_V562I] | 0.98
ATRDVYNPFET [SCAMP3_Y41_L38R] | 1.48

The sequences below were run against Grb2 SH2 (UniProt P62993) (assay: SH2 binding enrichment of the phosphorylated peptide, bacterial display (enrichment ratio); higher = better substrate or ligand; peptides without Tyr show the background).
Grb2 SH2, sequence (P62993 whole entry, looked up): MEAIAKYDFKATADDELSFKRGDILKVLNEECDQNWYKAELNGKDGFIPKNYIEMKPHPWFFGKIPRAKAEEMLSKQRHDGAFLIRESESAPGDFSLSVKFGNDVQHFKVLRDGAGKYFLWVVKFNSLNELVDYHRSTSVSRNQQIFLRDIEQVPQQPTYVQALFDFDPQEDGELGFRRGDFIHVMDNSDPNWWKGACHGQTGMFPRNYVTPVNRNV

Sequence | SH2 binding enrichment
ILDEAYVMASM [EGFR_Y764_V769M] | 0.66
VFSATYHPDHW [EFCAB12_Y544_P541S_YF] | 0.834
PTYKHYANSTQ [SLC12A3_Y70_E68K] | 0.702
WKGSWYSMRKM [FGB_Y475] | 1.78
VIESSYQVAKA [CPT1B_Y534] | 0.906
FLRKEYGGVNV [CBR3_Y81_L84V] | 0.984
DGTGRYLCNAC [GATA5_Y208_H207R] | 0.976
NTADFYDLFGG [PTPN11_Y63_G60A_YF] | 0.847
KNCFKYYMSDD [ATRX_Y203] | 0.828
HNLNFYKKTTN [FGFR3_Y648_D646N_YF] | 0.722
PTFEHYANSTQ [SLC12A3_Y70_YF] | 1.43
LHSEAYLKFIE [PBRM1_Y1610_YF] | 0.887
EGWQVYRLGTR [MISP_Y95_A99T] | 1.03
PLKALYLQQRP [ATM_Y2969] | 1.3
DKNSSYFADWL [TUBB8_Y340] | 0.99
HFEDGYPGGSD [CTNND1_Y221_YF] | 0.851
SSNPEYLSASD [INSR_Y999] | 0.977

Sequence | SH2 binding enrichment
EEAAGCAQESQ [CAMKV_Y491_Y491C] | 0.974
YTNELYMMMRD [FGFR1_Y730_C725Y] | 2.09
LAEMNYVHRDL [EPHB1_Y740] | 0.882
SVVVTYEPPEV [TP53_Y220_P219T] | 0.722
SENAFYLSPHI [COL6A3_Y2827_D2831H] | 0.776
PYRSIYFSSPK [MPG_Y75] | 0.952
TEALYYTDDTA [ADPRS_Y75] | 0.912
SKDSAYVTWEP | 0.975
GVLDIYGFEIL [MYO1A_Y382] | 0.793
AGADGYGFLAP [FOXL2_Y186_YF] | 0.832
VDHFGYTKDDK [APOB_Y740] | 0.819
PRAEWYRDDLL [MYOM2_Y317_V321L] | 1.15
AVVEPYNSLLT [TUBA1A_Y185_I188L] | 0.786
FGCTFYNQAIM [MCCC2_Y196_R193C] | 0.685
IITDYYVDMKF [MPP4_Y567_V562I] | 0.8
ATRDVYNPFET [SCAMP3_Y41_L38R] | 0.703

Each sequence was assayed against SHP2-C SH2 in the same assay as above.

Sequence | SH2 binding enrichment
ILDEAYVMASM [EGFR_Y764_V769M] | 0.633
VFSATYHPDHW [EFCAB12_Y544_P541S_YF] | 0.699
PTYKHYANSTQ [SLC12A3_Y70_E68K] | 0.768
WKGSWYSMRKM [FGB_Y475] | 1.48
VIESSYQVAKA [CPT1B_Y534] | 0.782
FLRKEYGGVNV [CBR3_Y81_L84V] | 0.698
DGTGRYLCNAC [GATA5_Y208_H207R] | 0.644
NTADFYDLFGG [PTPN11_Y63_G60A_YF] | 0.785
KNCFKYYMSDD [ATRX_Y203] | 0.785
HNLNFYKKTTN [FGFR3_Y648_D646N_YF] | 0.632
PTFEHYANSTQ [SLC12A3_Y70_YF] | 0.576
LHSEAYLKFIE [PBRM1_Y1610_YF] | 0.881
EGWQVYRLGTR [MISP_Y95_A99T] | 0.871
PLKALYLQQRP [ATM_Y2969] | 1.07
DKNSSYFADWL [TUBB8_Y340] | 0.853
HFEDGYPGGSD [CTNND1_Y221_YF] | 0.731
SSNPEYLSASD [INSR_Y999] | 0.642

Sequence | SH2 binding enrichment
EEAAGCAQESQ [CAMKV_Y491_Y491C] | 0.837
YTNELYMMMRD [FGFR1_Y730_C725Y] | 0.645
LAEMNYVHRDL [EPHB1_Y740] | 0.578
SVVVTYEPPEV [TP53_Y220_P219T] | 0.761
SENAFYLSPHI [COL6A3_Y2827_D2831H] | 0.606
PYRSIYFSSPK [MPG_Y75] | 1.34
TEALYYTDDTA [ADPRS_Y75] | 0.847
SKDSAYVTWEP | 0.726
GVLDIYGFEIL [MYO1A_Y382] | 0.574
AGADGYGFLAP [FOXL2_Y186_YF] | 0.661
VDHFGYTKDDK [APOB_Y740] | 0.95
PRAEWYRDDLL [MYOM2_Y317_V321L] | 0.716
AVVEPYNSLLT [TUBA1A_Y185_I188L] | 0.648
FGCTFYNQAIM [MCCC2_Y196_R193C] | 0.608
IITDYYVDMKF [MPP4_Y567_V562I] | 0.803
ATRDVYNPFET [SCAMP3_Y41_L38R] | 0.658

These sequences were tested against c-Src SH2 in the same assay as above.

Sequence | SH2 binding enrichment
ILDEAYVMASM [EGFR_Y764_V769M] | 0.424
VFSATYHPDHW [EFCAB12_Y544_P541S_YF] | 0.565
PTYKHYANSTQ [SLC12A3_Y70_E68K] | 0.56
WKGSWYSMRKM [FGB_Y475] | 1.97
VIESSYQVAKA [CPT1B_Y534] | 0.537
FLRKEYGGVNV [CBR3_Y81_L84V] | 0.458
DGTGRYLCNAC [GATA5_Y208_H207R] | 0.487
NTADFYDLFGG [PTPN11_Y63_G60A_YF] | 0.55
KNCFKYYMSDD [ATRX_Y203] | 0.835
HNLNFYKKTTN [FGFR3_Y648_D646N_YF] | 0.428
PTFEHYANSTQ [SLC12A3_Y70_YF] | 1.09
LHSEAYLKFIE [PBRM1_Y1610_YF] | 0.39
EGWQVYRLGTR [MISP_Y95_A99T] | 0.546
PLKALYLQQRP [ATM_Y2969] | 0.914
DKNSSYFADWL [TUBB8_Y340] | 0.766
HFEDGYPGGSD [CTNND1_Y221_YF] | 0.397
SSNPEYLSASD [INSR_Y999] | 0.557

Sequence | SH2 binding enrichment
EEAAGCAQESQ [CAMKV_Y491_Y491C] | 0.79
YTNELYMMMRD [FGFR1_Y730_C725Y] | 1.63
LAEMNYVHRDL [EPHB1_Y740] | 0.403
SVVVTYEPPEV [TP53_Y220_P219T] | 0.729
SENAFYLSPHI [COL6A3_Y2827_D2831H] | 0.461
PYRSIYFSSPK [MPG_Y75] | 0.594
TEALYYTDDTA [ADPRS_Y75] | 0.856
SKDSAYVTWEP | 0.654
GVLDIYGFEIL [MYO1A_Y382] | 0.343
AGADGYGFLAP [FOXL2_Y186_YF] | 0.456
VDHFGYTKDDK [APOB_Y740] | 0.592
PRAEWYRDDLL [MYOM2_Y317_V321L] | 0.686
AVVEPYNSLLT [TUBA1A_Y185_I188L] | 1.31
FGCTFYNQAIM [MCCC2_Y196_R193C] | 0.534
IITDYYVDMKF [MPP4_Y567_V562I] | 1.11
ATRDVYNPFET [SCAMP3_Y41_L38R] | 0.427
